Data reported in patent publication US20140193915, “COMPOSITIONS AND METHODS FOR CUSTOM SITE-SPECIFIC DNA RECOMBINASES” (Monsanto Technology, LLC, published 2014).

Assays:
pN-TALER IV-1-EE3 = molecular target: T1, pN-TALER IV-1-EE3 (synthetic); assay: cell_activity; E. coli; details: tags: 6-His
T1 chain: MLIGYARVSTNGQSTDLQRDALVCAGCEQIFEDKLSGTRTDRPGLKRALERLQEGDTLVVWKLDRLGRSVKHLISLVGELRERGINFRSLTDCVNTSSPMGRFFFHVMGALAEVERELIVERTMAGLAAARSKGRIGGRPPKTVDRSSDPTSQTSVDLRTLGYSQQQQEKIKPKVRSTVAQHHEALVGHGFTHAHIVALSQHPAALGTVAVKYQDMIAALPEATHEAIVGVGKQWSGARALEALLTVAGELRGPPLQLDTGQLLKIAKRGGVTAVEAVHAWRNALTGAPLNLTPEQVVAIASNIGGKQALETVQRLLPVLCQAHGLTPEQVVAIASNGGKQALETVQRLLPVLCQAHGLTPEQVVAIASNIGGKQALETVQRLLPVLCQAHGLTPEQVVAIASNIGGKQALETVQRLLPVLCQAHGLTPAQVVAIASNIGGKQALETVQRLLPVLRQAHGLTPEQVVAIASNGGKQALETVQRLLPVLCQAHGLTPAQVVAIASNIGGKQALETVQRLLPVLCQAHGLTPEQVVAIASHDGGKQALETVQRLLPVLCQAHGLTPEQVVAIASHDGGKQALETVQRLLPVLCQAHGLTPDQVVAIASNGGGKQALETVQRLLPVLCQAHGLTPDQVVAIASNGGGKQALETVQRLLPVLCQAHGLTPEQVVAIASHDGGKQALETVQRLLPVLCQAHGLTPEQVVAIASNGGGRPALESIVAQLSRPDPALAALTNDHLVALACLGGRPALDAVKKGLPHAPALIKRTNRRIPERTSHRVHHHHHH

[1] = molecular target: T2, sN-TALER IV-1 (GinH106Y-TALE13) (synthetic); assay: cell_activity; E. coli; sequenced; details: tags: 6-His; chain copies: 2 per site, tetramer in synapsis (stated)
T2 chain: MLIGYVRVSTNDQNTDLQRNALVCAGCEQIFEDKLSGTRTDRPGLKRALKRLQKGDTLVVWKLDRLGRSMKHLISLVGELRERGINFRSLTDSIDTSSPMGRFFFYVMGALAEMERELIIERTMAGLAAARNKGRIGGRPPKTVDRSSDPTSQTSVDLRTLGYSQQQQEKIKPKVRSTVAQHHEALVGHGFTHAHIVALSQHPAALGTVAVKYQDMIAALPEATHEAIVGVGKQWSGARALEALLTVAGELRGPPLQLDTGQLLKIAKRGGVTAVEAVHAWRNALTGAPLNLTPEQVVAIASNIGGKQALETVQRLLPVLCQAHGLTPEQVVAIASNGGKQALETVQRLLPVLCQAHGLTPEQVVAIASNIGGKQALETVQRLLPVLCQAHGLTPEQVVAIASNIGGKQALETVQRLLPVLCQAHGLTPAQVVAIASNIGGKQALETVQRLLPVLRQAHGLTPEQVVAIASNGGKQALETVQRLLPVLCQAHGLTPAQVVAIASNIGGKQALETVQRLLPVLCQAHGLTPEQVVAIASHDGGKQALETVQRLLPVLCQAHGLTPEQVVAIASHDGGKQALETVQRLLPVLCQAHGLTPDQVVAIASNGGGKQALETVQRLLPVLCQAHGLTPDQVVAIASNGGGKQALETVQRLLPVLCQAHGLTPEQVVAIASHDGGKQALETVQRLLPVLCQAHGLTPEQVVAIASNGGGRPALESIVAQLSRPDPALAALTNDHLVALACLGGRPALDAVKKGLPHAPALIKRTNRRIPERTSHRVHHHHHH
Protocol: To test for recombination, E. coli DH5alpha cells were co-transformed with different combinations of TALER expression construct and TALER reporter construct pairs (Tables 6 and 7). The N-TALER expression and reporter constructs were in an approximate 1:1 mass ratio during the transformation. The co-transformed bacteria were plated on media with chloramphenicol, kanamycin, and X-gal then incubated at 37° C. for 18 to 36 hours. Control samples consisted of transformations using the reporter construct alone. Control transformants were similarly plated. The bacterial transformation protocol was either heat shock or electroporation per standard molecular biology techniques.
PCR was used to confirm that the predicted recombination had occurred in colonies which were white or sectored. PCR primers were designed so that a PCR product of approximately 877 bp (depending on the length of the spacers) would be produced from the non-recombined reporter constructs, and a PCR product of approximately 470 bp would be produced from reporter constructs that had undergone N-TALER-mediated recombination. Standard colony PCR was performed on white, blue, and sectored colonies from several plates representing different pairs of N-TALER expression construct and reporter construct co-transformation combinations.
To confirm that the recombination occurred as predicted, several of the PCR products were sequenced. Sequencing results for PCR products generated from white colonies from the sN-TALER IV-1 and Gin18TALE+1; sN-TALER IV-1 and Gin20TALE+0; or sN-TALER IV-1 and Gin20TALE+10 reporter constructs are shown in FIG. 7. No mismatches were detected relative to the predicted recombinase core sequence in any of the PCR products sequenced thereby confirming a base-perfect recombination with N-TALERs (the few single-nucleotide mismatches detected in the sN-TALER IV-1 and Gin20TALE+0 combination were rechecked and consequently dismissed as sequencing error).

B1: Gin18TALE+0 (dsDNA)
DNA 1: AGAAGGTATTTATACCAAAACCATGGTTTACATATAAATACCTTCT
DNA 2: AGAAGGTATTTATATGTAAACCATGGTTTTGGTATAAATACCTTCT
Binder B1 has an activity (pN-TALER IV-1-EE3) of 3 score.

B2: Gin18TALE+1 (dsDNA)
DNA 1: AGAAGGTATTTATATCCAAAACCATGGTTTACAATATAAATACCTTCT
DNA 2: AGAAGGTATTTATATTGTAAACCATGGTTTTGGATATAAATACCTTCT
B2 was tested, and the activity [1] was 1 score.

B3: Gin20TALE+0 (dsDNA)
DNA 1: AGAAGGTATTTATATCCAAAACCATGGTTTACAGTATAAATACCTTCT
DNA 2: AGAAGGTATTTATACTGTAAACCATGGTTTTGGATATAAATACCTTCT
B3 gave an activity [1] of 1 score.
